# Experimental data from the supplement of paper PMC9170038.
# Tested on: MS2 coat protein
# Assay: apparent KD of MS2 coat protein; designed switch direction (-1 OFF switch, 1 ON switch): -1; higher = weaker reporter binding
# Outline: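 Designed RNA switches with common flanks were made on Illumina chips by stalled E. coli RNA polymerase. Titration with SNAP-549-labelled MS2 coat protein doubled from 0.7 or 1.5 nM up to 3 µM. Apparent KD is each design's median over clusters after curve-fitting normalised fluorescence.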
# [1] = input ligand: microRNA oligo, concentration not stated
# [2] = Eterna round: R95, input ligand: FMN 200 uM
# [3] = Eterna round: R95, input ligand: microRNA oligo, concentration not stated
# [4] = Eterna round: R95, input ligand: none
Sequence,apparent KD of MS2 coat protein (input ligand: FMN 200 uM) [nM],apparent KD of MS2 coat protein [1] [nM],apparent KD of MS2 coat protein (input ligand: none) [nM],also measured
"AACCUGAGGCAAAGCUUUAGGUGUACAUGAGGAUCACCCAUGUAGGAUAUGGUAGGCAAAGCUUACCAGAAGGACAUUAUGAUA [Mat - Exclusion NG 3 - Mod of JL - D52] (Eterna round: R96, puzzle: Exclusion NG 3)",66.9,44,53.1,–
"GCUAGAGCAGGAUAUCUAGAUCCACACAUGAGGAUCACCCAUGUACGGUCGAAAGACCGAAGAGAAGGGCUCUAGC [Omei Ex5 E12] (Eterna round: R97, puzzle: Exclusion 5)",98.5,–,67,–
UUUUAACAUGAGGAUCACCCAUGUGAGGAUAUCAUUUUUUUUUUUUUUUUUUUUUUUUUGAGAAGGCACAUUUU [My solution] (puzzle: Exclusion 1),–,–,–,apparent KD of MS2 coat protein [2]: 11.9 nM; apparent KD of MS2 coat protein [3]: 37 nM; apparent KD of MS2 coat protein [4]: 14.2 nM
"UUAAAUCAUGUAGGAUAUGCGUGGAGAAGCUAUGCAGAAGGACAUGAGGAUCACCCAUGUGCUUCCGUCUGCGUACAGAUGGUA [Mat - Exclusion NG 1 - Mod of JL - D7] (Eterna round: R96, puzzle: Exclusion NG 1)",84.5,17.1,19.5,–
"UUAAAUCAUGUAGGAUAUGCGUGGCGAAGCUAUGCAGAAGGACAUGAGGAUCACCCAUGUUCCUGCGUCCGCGUACGGAUGCAA [JL Eng1 1.21 mod] (Eterna round: R96, puzzle: Exclusion NG 1)",167,16.3,18.1,–
"UACCUCACUUCUUUGACUCACAUGAGGAUCACCCAUGUAAUAUAGGAUAUGCAUUUUAUUUCUUUGCAGAAGGAUAUUAGUUUU [JR_ExcNG3_Sub089] (Eterna round: R96, puzzle: Exclusion NG 3)",–,31.3,–,–
"UACAUGAGGAUCACCCAUGUUUUGUCGUGUAUGGUAUUUAUCUAGGAUAUCAAUUUAGUUAAUUAUGAGAAGGAGAAUAUUAAU [JMF's solution 75] (Eterna round: R96, puzzle: Exclusion NG 3)",–,28.9,–,–
UAGAUGGCUCAGGAUAUUUGCCAACUAACUCGCGAAGAAGGGAGCACAUGAGGAUCACCCAUGUGAUCGAACGG [Rila] (puzzle: Exclusion 6),–,–,–,apparent KD of MS2 coat protein [3]: 16.3 nM
"GCACUGACAGGAUAUACAUGAGGAUCACCCAUGUGACCCUUAAAGUACUCGCGUACAAGUAGAAGGGUCUGUGC [Omei Ex3 Model Bachelor's Dilema v30] (Eterna round: R97, puzzle: Exclusion 3)",398,–,66.7,–
AGAUGUACCUAGGAUAUCCGUCGAAUUGGACUAGGAGAAGGAGGUACAUGAGGAUCACCCAUGUAUGACUCCUG [Bemabice] (puzzle: Exclusion 6),–,–,–,apparent KD of MS2 coat protein [3]: 10.1 nM
"AAUUAUUUUUGAGGAUAUUGUGGUGAAACACCACAAGAAGGCAAGAUACACAUGAGGAUCACCCAUGUGAGCCUGAUGCUUAUG [Ex NG1 #53] (Eterna round: R96, puzzle: Exclusion NG 1)",–,13.1,–,–
"CGGAUGUUAGGAUAUUAGUAGUAGUCAGAAAAGACUAUUACUGAGAAGGAACAUGAGGAUCACCCAUGUAUCCG [Mat - Exclusion 4 - Eli Mod - D45] (Eterna round: R97, puzzle: Exclusion 4)",33.1,–,15.1,–
"AGCUGACGAGGAUAUACAUGAGGAUCACCCAUGUUGGUCAAGCGACGAUAGUCGCAAUGUAGAAGGCGUCAGCU [E3/8-A1] (Eterna round: R97, puzzle: Exclusion 3)",621,–,547,–
"AUGAAGUAAGGAUAUUAUCGCGGGCAGAGGCCCAGCUCAUAUGAGAAGGUACAUGAGGAUCACCCAUGUCCUCU [Eternabot (L2) Solution 72] (Eterna round: R97, puzzle: Exclusion 4)",25.9,–,30,–
"ACACUGCGAGGAUAUACAUGAGGAUCACCCAUGUUUCGGUAGUCAAGGUUAAUUUAAGGUAGAAGGCGCGUAUU [JR_Ex3_Sub010] (Eterna round: R97, puzzle: Exclusion 3)",63.8,–,33.2,–
GGUUGGCGAGGAUAUACAUGAGGAUCACCCAUGUGAGAAAAAAAAGUGAGGAAGAAAAGUAGAAGGCGCUGACG [salish99_ex3_r3_015] (puzzle: Exclusion 3),–,–,–,apparent KD of MS2 coat protein [2]: 67.7 nM; apparent KD of MS2 coat protein [3]: 37.7 nM; apparent KD of MS2 coat protein [4]: 35.6 nM
UACUAUAAGGAGGAUAUCGUAUCGGAAACGAUACGAGAAGGCUUAACAUGAGGAUCACCCAUGUUCUUCAAUAA [Fiskers Ex 6 - 25] (puzzle: Exclusion 6),–,–,–,apparent KD of MS2 coat protein [3]: 16.2 nM
"UUGUUAUAUGUAGGAUAUGCGUAUUAUUAUUAUGCAGAAGGACAUGAGGAUCACCCAUGUAUAUUAUUAUUAUAUAUUAUAUAU [Title] (Eterna round: R96, puzzle: Exclusion NG 1)",–,21.9,–,–
"AGCCAAGCAGGAUAUGCACGUAAUAACAUGAGGAUCACCCAUGUGACCGAUUUAUAUUCUGCAGAAGGGCUUGGAA [LRO-Excl5-14-mod of Erxesoan mod by Eli Fisker] (Eterna round: R97, puzzle: Exclusion 5)",143,–,29.7,–
"AAUUAGUGAGGAUAUACUAACAGUGGUAGUAGAUAGUGGAUGUAGAAGGCACAUGAGGAUCACCCAUGUUAUAA [EX4 #52] (Eterna round: R97, puzzle: Exclusion 4)",26,–,43.7,–
"CGCUGGACAGGAUAUGUUCUUGGGCACUUGAGGAUCACCCAAGUCAUCGGGACAUCAGGCACAGAAGGGUCGUUGG [salish99_ex5_r4_029] (Eterna round: R97, puzzle: Exclusion 5)",22.2,–,25.6,–
"GCAGCUAACACAGAUAUGUGGACAUGAGGAUCACCCAUGUCACAGGAUAUGGACUGGAUUACAGUCCAGAAGGGUGAAUGCUGC [Zipper Style 5] (Eterna round: R96, puzzle: Exclusion NG 3)",8.25,10.8,14.2,–
CGUGACUCAGGAUAUCUAUGAUAUCACAUGAGGAUCACCCAUGUCCAGCAAUAGCUGGAGGGAGAAGGGAGUCACG [Fiskers Ex 5 - 41] (puzzle: Exclusion 5),–,–,–,apparent KD of MS2 coat protein [2]: 84 nM; apparent KD of MS2 coat protein [3]: 54.3 nM; apparent KD of MS2 coat protein [4]: 166 nM
"UUUUAGUCAGGAUAUACAUGAGGAUCACCCAUGUAAAAUUUUAAUUUAAUUUGAAUGUGUAGAAGGGACAUUUU [Ex3 #41] (Eterna round: R97, puzzle: Exclusion 3)",23.6,–,26.4,–
"UAUUAGCAAGCAACUGGGUACAUGAGGAUCACCCAUGUGCUCGUCUUAUAAGGUACUGUGACGAAAUUCACGGUACC [mod--Eli13] (Eterna round: R97, puzzle: Sensor, turn-off variant 1)",21.1,–,18.6,–
"UCAAGCUUUAAGCGUGUGAACAUGAGGAUCACCCAUGUAUUUUAGGUAAUAAGUUCUUUUAUGUAUUCUCGUCUUAU [JR_SWV3TOV1_Sub094] (puzzle: Sensor v3, turn-off variant 1)",–,–,–,apparent KD of MS2 coat protein [2]: 114 nM; apparent KD of MS2 coat protein [3]: 39.1 nM; apparent KD of MS2 coat protein [4]: 136 nM
